The record followed here is patent publication US12545899B2, “Luciferase enzymes for use with thermostable luciferins in bioluminescent assays” (Promega Corporation, priority 2018, dated 2026).

Residue numbers refer to the chain shown, from its start. Names may count otherwise.

The nature of data set [1]: Effect of V300G, L305F, S306P on activity with CS0333 (FIG. 13). It counts as biochemical. Conditions: 1 mM ATP; 100 nM to 1 mM substrate; Bright-Glo buffer. The protocol: FIG. 13 includes a representative graph of the effects of amino acid substitutions V300G, L305F, and S306P on enzyme activity with the CS0333 analog. Reagent compositions included […]+1 mM ATP+100 nM to 1 mM substrate in Bright-Glo™ buffer.

The nature of data set [2]: Activity of ATG-2889 variants (positions 344/396) with CS0333. It counts as biochemical. Conditions: substrate CS0333. The source says: (§1) Additionally, several other amino acid substitutions, including those not considered to be conservative or semi-conservative, were made to ATG-2889, as shown below in Table 2.
The nature of data set [3]: Activity of ATG-2889 variants (positions 344/396) with D/L-luciferin. The format is biochemical. Conditions: substrate D/L-luciferin.
Text: as §1

The nature of data set [4]: Kinetic analysis of ATG-2889 with CS0333 versus luciferin (FIG. 16B). It counts as biochemical. The protocol: FIG. 16B provides similar results. […] The composition was incubated for 3 mins prior to quantification.
Data set [5] is described as follows: E. coli lysate activity of position 244/339 variants with CS0333 (FIG. 7). It counts as biochemical. Conditions: E. coli lysates; Detection Reagent; 0.5 mM substrate; 1 mM ATP; 3 mins. How it is done:
FIG. 7 includes a representative graph assessing the activities of luciferase enzyme variants with amino acid substitutions at positions 244 and 339 of SEQ ID NO: 1 in the presence of 5,5-disubstituted luciferin analog substrate. Assays were prepared by combining overnight E. coli culture expressing enzymes with Detection Reagent+ATP+substrate (luciferin analog compounds CS0280, CS0333, CS0510, and CS0326), and luminescence was read at 3 mins. Reagent compositions included 50 μl lysate of the thermostable luciferase variant of Ppe variant of SEQ ID NO: 1, 0.5 mM substrate, and 1 mM ATP.

Data set [6] in a line: Luminescence at 1 mM D/L-luciferin (Table 11). The format is biochemical. The note with it: 1 mM substrate, 1 mM ATP. The source says: (§2) Tables 10 and 11 include representative results of kinetic analysis of the thermostable variants with D/L luciferin, CS0333, and CS0280. […] MK0135 and MK0137 have amino acid substitutions that improve thermostability relative to MK0133 and MK0134, respectively, while retaining activity on the luciferin analogs CS0333 and CS0280.

Data set [7] can be described thus: Luminescence at 1 mM CS0280 (Table 11). It counts as biochemical. The note with it: 1 mM substrate, 1 mM ATP.
Text: as §2

Data set [8] is described as follows: Kinetic analysis of Ppe variant, ATG-3707, ATG-4117 with D/L-luciferin. It counts as biochemical. The protocol: Kinetic tests of these luciferase enzyme variants were also conducted. […] Reagent compositions included 0.005 mg/ml luciferase enzyme variant+1 mM ATP, and 0.1 fM to 1 mM substrate in Bright-Glo™ (BG) or Detection Reagent (DR) buffers. The composition was incubated for 3 mins and read on GloMax® Multi+platform.
Table 8 below includes representative results of kinetic analysis of the thermostable luciferase variants of Ppe (SEQ ID NO: 1), ATG-3707, and ATG-4117. The Ppe variant (SEQ ID NO: 1) was tested with D/L-luciferin, and ATG-3707, and ATG-4117 were tested with CS0280 and CS0333.

Data set [9] is described as follows: Kinetic analysis of thermostable variants with D/L-luciferin (Tables 13, 14). It counts as biochemical. The note with it: 2 mM ATP.
A short description of data set [10]: Differential scanning fluorimetry (DSF) analysis. The note with it: Table 9A. It counts as physicochemical. Put shortly:
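Thermal melt with 5× final Sypro Orange: ramp 1° C/min from 30 to 95° C, reading each 60 s, derivative of fluorescence plotted by temperature. Luciferase variants were in 20 mM HEPES pH 7.5, 200 mM NaCl, 1 mM EDTA; other enzymes in 50 mM HEPES pH 7.5, 100 mM NaCl, 2 mM EDTA.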

Data set [11] is described as follows: Vmax and Km of Ppe variant and ATG-3707 with D/L-luciferin. It counts as biochemical.
Data set [12] can be described thus: Luminescence at 1 mM CS0333 (Table 11). The format is biochemical. Conditions: 1 mM substrate, 1 mM ATP.
Text: as §2

Data set [13] in a line: Kinetic analysis of thermostable variants with D/L-luciferin (Table 10). It counts as biochemical. How it is done:
Experiments were also conducted to evaluate the activities (i.e. Vmax and Km) of the various thermostable luciferase variants of Ppe (SEQ ID NO: 1) described above.
as §2

The nature of data set [14]: Km for ATP with saturating substrate (FIG. 18). It counts as biochemical. The note with it: with CS0333, relative to Ppe variant with luciferin. How it is done: Reagent composition included 1 mM substrate, 100 fM-100 uM ATP (10-fold dilutions), and 0.1 mg/ml enzyme. […] Thus, the combination of the ATG-3674 luciferase enzyme variant with the thermostable CS0333 luciferin analog substrate will be effective in ATP detection/quantification assays.

Data set [15] is described as follows: Activity of ATG-2671 with luciferin analogs. The format is biochemical. Conditions: data not shown. The protocol: FIG. 15 includes representative graphs of kinetic activity of the luciferase enzyme variant ATG-2671 with D/L-luciferin. […] The composition was incubated for 3 mins and read on GloMax® Multi+platform.

B1: ATG2889: SEQ ID NO: 12; H244W+T344A+I396K (protein)
chain: MADKNILYGPEPFYPLEDGTAGEQMFDALSRYAAIPGCIALTNAHTKENVLYEEFLKLSCRLAESFKKYGLKQNDTIAVCSENSLQFFLPVIASLYLGIIVAPVNDKYIERELIHSLGIVKPRIVFCSKNTFQKVLNVKSKLKSIETIIILDLNEDLGGYQCLNNFISQNSDSNLDVKKFKPYSFNRDDQVASIMFSSGTTGLPKGVMLTHKNIVARFSIAKDPTFGNAINPTSAILTVIPFHWGFGMMTTLGYFTCGFRVVLMHTFEEKLFLQSLQDYKVESTLLVPTLMAFLAKSALVEKYDLSHLKEIASGGAPLSKEIGEMVKKRFKLNFVRQGYGLTEATSAVLITPKGDAKPGSTGKIVPLHAVKVVDPTTGKILGPNEPGELYFKGPMKMKGYYNNEEATKAIIDNDGWLRSGDIAYYDNDGHFYIVDRLKSLIKYKGYQVAPAEIEGILLQHPYIVDAGVTGIPDEAAGELPAAGVVVQTGKYLNEQIVQDYVASQVSTAKWLRGGVKFLDEIPKGSTGKIDRKVLRQMLEKHTNGHHHHHHHH
Consider B1, for which the “activity with CS0333 relative to Ppe variant (SEQ ID NO: 1)” value in data set [1] is “improved activity”. In addition, the “activity with CS0333” value in data set [2] amounted to 679219. Further, the “activity with D/L-luciferin” value in [3] is recorded as 5507240. Further, the figures for the “Vmax with CS0333 lower than the Vmax for luciferin” value in data set [4] (Bright-Glo Buffer) and in data set [4] (Detection Reagent buffer) were 23.1 fold and 42.9 fold, respectively. The “activity above background with CS0333” value in data set [5] was “approximately 285 fold”.

B2: Ppe variant: thermostable luciferase variant of Photuris pennsylvanica (Ppe) of SEQ ID NO: 1 (protein)
chain: B1 chain with W244H, V300C, A344T, K396I
Regarding B2, the “Vmax (RLU) D/L-luciferin BrightGlo Buffer” value in data set [6] (BrightGlo Buffer) is reported as 30,177,800 RLU. The “Vmax (RLU) D/L-luciferin Detection Reagent Buffer” value in data set [6] (Detection Reagent Buffer) is recorded as 17,201,600 RLU. For the same molecule, in data set [7] (BrightGlo Buffer), the “Vmax (RLU) CS0280 BrightGlo Buffer” value is listed as 3,689 RLU. Also, in [7] (Detection Reagent Buffer), the “Vmax (RLU) CS0280 Detection Reagent Buffer” value turned out to be 394 RLU. The “activity with CS0333” value in data set [2] came to 178. Also, the Km in data set [8] (BrightGlo) was found to be 0.466 µM; in data set [8] (Detection Reagent) it was 11 µM; in data set [9] (BrightGlo Buffer) it was 1.03 µM; in data set [9] (Detection Reagent Buffer) it was 28.3 µM; in data set [11] (BrightGlo Buffer) it was 0.315 µM; in data set [11] (CellTiterGlo buffer) it was 1060 µM. For the same molecule, the Km in [11] (Detection Reagent Buffer) was found to be 10.8 µM; in data set [13] (BrightGlo Buffer) it was 0.667 µM; in data set [13] (Detection Reagent Buffer), 9.38 µM. Also, the “Vmax (RLU)” value is recorded as 23,226,184 RLU in data set [8] (BrightGlo); 12,592,733 RLU in [8] (Detection Reagent); 14,958,892 RLU in data set [9] (BrightGlo Buffer); 5,686,042 RLU in [9] (Detection Reagent Buffer); 23,319,814 RLU in [11] (BrightGlo Buffer); 5,771,822 RLU in data set [11] (CellTiterGlo buffer). Moreover, the “Vmax (RLU)” value in data set [11] (Detection Reagent Buffer) was 10,017,520 RLU; in data set [13] (BrightGlo Buffer), 18,332,536 RLU; in data set [13] (Detection Reagent Buffer), 9,350,431 RLU. Also, the “DSF Tm (° C.)” value in data set [10] worked out at 79 °C. The “activity with D/L-luciferin” value in data set [3] amounted to 7118320. The “activity above background with CS0333” value in [5] is recorded as “below background (inhibited)”. The “Vmax (RLU) CS0333 BrightGlo Buffer” value in data set [12] (BrightGlo Buffer) is recorded as 862 RLU. For the same molecule, the “Vmax (RLU) CS0333 Detection Reagent Buffer” value in data set [12] (Detection Reagent Buffer) was 724 RLU.

B3: ATG-3674: SEQ ID NO: 25; H244W+T344A+I396K+S193A+N228D+L305F+S306P (protein)
chain: B1 chain with S193A, N228D, L305F, S306P
Regarding B3, the “Km values for ATP” value in data set [14] is recorded as “equivalent to improved Km values for ATP”.

B4: ATG-2671: luciferase enzyme variant ATG-2671 (G245A+L285I+G315A) (protein)
chain: B1 chain with W244H, G245A, L285I, V300C, G315A, A344T, K396I
Turning to B4, the “activity with luciferin analogs” value in [15] is reported as “not active”.
